Measured values reported in the nanobody polyreactivity screen of Harvey et al. (2022).

Assay: yeast display, Sf9 membrane polyspecificity reagent, FACS + sequencing; frameworks hold sequencing errors
Outline: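 Galactose-induced (36–48 hours) yeast carrying a synthetic nanobody display library were exposed to 10% biotinylated, detergent-solubilized Sf9 membrane reagent at 4 °C for 1 hour. FACS followed streptavidin microbead enrichment, using low and high (top ~1%) gates for expression (anti-HA) and reagent binding (streptavidin). Colony PCR, MiSeq 2 × 250 sequencing and CDR-length filtering followed. Labels for polyreactivity reflect the gate of origin.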

Sequence	polyreactivity (PSR sort gate)
QVQLVESAGGLVQAGGSLRLSCAASGSTLYQYTMGWYRQAPGKERELVAAISRSGGRTYYADSVKGRFTISRDNAKNTVYLQMNSLKPEDTAVYYCAVDPGAYDSWGQGTQVTVSS	high polyreactivity
QVQLVESAGGLVQAGGSLRLSCAASGSTQVIYHMGWNRQAPGNERYIVAAITYGGGRTYYADSVKGRFTISSDNAKNTVYLQMNSLKPEDTAYYYCAAYSYYYTWNPGYWGQGTQVTVSS	high polyreactivity
QVQLVESAGGLVQAGGSLRLSCAASGYIFYFYAMGWYRQAPGKERELVAAITSVGSTKYADSVKGRFTISRDNAKNTVYLQMNSLKPEDTAVYYCAARSWSGYGLYNYWGHGTQVTVSS	high polyreactivity
QVQLVESAGGLVQAGGSLRLSCAASGYTFDFYAMGWYRQAPGKERELVAAISKNDGTTYYADSVKGRFTISRDNAKNTVYLQMNSLKPEDTAVYYCAAESGYPVYTYVSSGDYWGQGTQVTVSS	low polyreactivity
QVQLVESAGGLVQAGGSLRLSCAASGYTFYRNAMGCYRQAPGKERELVAAISWRGGSTYYADSVKGRFTISRDNAKNTVYLQMNSLKPEDTAVYYCAAYFSYGGSTTGEEYWGQGTQVTVSS	high polyreactivity
QVQLVESAGGLVQAGGSLRLSCAATGFTFYTYAMGWYRQAPGKERELVADISSGGSTNYADSVKGRFTISRDNAKNTVYLQMNSLKPEDTAVYYSSAVYYFLDWYDYWGQGTQVNVSS	low polyreactivity
QVQLVESAGGLVQAGGSLRLSCAATGSTVDRNGMGWYRQAPGKERELVASISGRGGSTYYADSVKGRFTISRDHAKNTVYLQMNRLKPEDTAVYYCAVRYGFFSRYNSWGQGTQVTVSS	high polyreactivity
QVQLVESAGGLVQAGGSLRLSCAAYGSIIKRNAMGWYRQAPRKERQLVATSSSGDGSTRYADSVKWRFTISRDNAKNTVYLQMNSLKPEDTAVYYCALDFTYTYYRWKNPYRIGHDYWGHGTQVTVSS	low polyreactivity
QVQLVESAGGLVQAGGSLRLSCAPSGRIFGRYAMGWYRHAPGKERELVAAISFNGGSTSYADSVNGRFTISRDNAKNTVYLQMNTLKTEYTAVYYCAAKYRGFNYWGQGTQVTVSS	high polyreactivity
QVQLVESAGGLVQAGGSLRLSCAPSGRIFLTNAMGWYRQAPGKERELVAAITSGGSTYYADSVKGRFTISRDNAKNTVYLQMNSLKPEDTAVYYCNADTDRYWPYEYDYWGQGTQVTVSS	low polyreactivity
QVQLVESAGGLVQAGGSLRLSCDASGRIFTIYAMGWYSQAPGKERELVAAIRSSGDRTYYADSVKGRFTISRDNAKNTVYLQMNSQKPEDTAVYYCAARTRGGYYWGQGTQVTVSS	high polyreactivity
QVQLVESAGGLVQAGGSLRLSCDASGSILDSNAMGWYRQAHGKERELVAAITSGGSTYYADSVKGRFTISRDNAKNTVYLQMNSLKPEDTAVYYCAAVDIYKYYQYYAFPYYRYDSWGQGTQVTVSS	low polyreactivity
QVQLVESAGGLVQAGGSLRLSCDASGSTFVINAMGWYRPAPGKERELVAAISKSGGRTYYADSVKGRFTISRDNAKNTVYLQMNSLKPEDTAVYYCAAVSQRTRYGYWGQGTQVTVSS	high polyreactivity
QVQLVESAGGLVQAGGSLRLSCHASGLTVRTYDMGWYRQEPGKERELVAAITTGGSTYYADSVKGRFSISRDNAKNTVYLQMNSLKPEDTAVYYCAADFIRYINRLLYDFWGQGTQVTVSS	low polyreactivity
QVQLVESAGGLVQAGGSLRLSGSASGIIIASNGMGWYRQPPGKERELVAAISSGGSTNYADSVKGRFTISRDNAKNTVYLQMNSLKPEDTAVYYCADDRWYREYDYWGQGTQVTVSS	low polyreactivity
QVQLVESAGGLVQAGGSLSIICAASGFTFSPYTMGWYRKAPGKERELVAAINRRGVSTYYADSVKGRFTISRDNEKNTVYLQMNSLKPEDTAVYYCAAEWYYQYSIYRYGYWGQGTQVTVSS	low polyreactivity
QVQLVESAGGLVQAGGSLSLICAASGSTFVVNALGWYRQAPGKERELVAAITTSGGSTYYADSVKGRFTISRDNAKNTVYLQMNSLKPEDTAVYYCAAETWGYYGYGVDYDYWGQGTQVTVSS	high polyreactivity
QVQLVESAGGLVQAGGSLSLSCAANGFTFTYYTMGWYRQAPGKERELVAAITENGGSTYYADSVKGRFTISRDNAKNTVYLQMNSLKPEDTAVYYCNARVWDYGGHGYDYWGQGTQVTVSS	low polyreactivity
QVQLVESAGGLVQAGGSLSLSCAASGRIFNLYAMGWYRKAPGKERELVAAIRGRGTSTYYADSVKGRFTISRDNAKNTVYLQMNSLKPEDTAVYYCAREGGYGPTLQDTSRYEYWGQGTQVTVSS	low polyreactivity
QVQLVESAGGLVQAGGSLSLSCAASGRTFVIYAMGSDRQAPGKERELVAGIDSGTSTYADSVKGRFTISRDNAKNTVYLQMNSLKPEDTAVYYCAADFAPDGAGWYIPGDYDSWGQGTQVTVSS	low polyreactivity
QVQLVESAGGLVQAGGSLSLSCAASGRTFVIYAMGWYRKAPGKERELVAGIDSGTSTYADSVKGRFTISRDNAKNTVYLQMNSLKPEDTAVYYCAADFAPDGAGWYIPGDYDSWGQGTQVTVSS	low polyreactivity

Sequence	polyreactivity (PSR sort gate)
QVQLVESAGGLVQAGGSLSLSCAASGSTFAGYVMGWYRQAPGKERELVAAISRSGGSTYYADSVKGRFTISRDNAKNTVYLQMNSLKPEDTAVYYCAARNSPGLPGDYWGQGTQVTVSS	high polyreactivity
QVQLVESAGGLVQAGVSLRLSCAASGRTFVGNAMGGYRQAPGKERELVADITWSGDITYYADSVKGRFTIARDTAKNTVYLQMISLKPEDTAVYYCAADYHRRLTDYDYWGQGTQVTVSS	low polyreactivity
QVQLVESAGGLVQAVGSLRLSCAASGRICGIYAMGWYRQAPGKERELVAAISFIGGRTYYADSVKGRFTISRDNAKNTVYLQMNSLKPEDTAVYDCAARTVPSSRREYWGQGTQVTVSS	high polyreactivity
QVQLVESAGGLVQEGGRLRLSCAASGITLGAYAMGRYRQAPGKEREMVARIRIGGSKYYADSVKGRFTISRDNEKNTVYLQMNSLKPEDTAVYYCATRWQEYAGDYWGDYWGQGTHVTVSS	low polyreactivity
QVQLVESAGRLVQAGGSLRLSCAASGSTFYSYAMGWYRQAPGKEREFVAAITYSDGITYYADSVKGRFTISRDNAKNTVYLQMNSLKPEDTAVYYCAKAPIWGVTRKFDYWGQGNQVTVSS	high polyreactivity
QVQLVESAGRLVQAGGSLRLSCAPSGSIFSHNAMGWYRPAPGKERELVAAISRSGGSTYYADSVKGRFTISRDNAKNTVYLQMNSQKPEDTAVYYCNALGRISNHTLYDYWGQGTQVTVSS	low polyreactivity
QVQLVESAGVLVQAGGILRLSFAASGINFPYYAMGWYRKAPGKERELVAAISSSGGSSYYADSVKGRFTISRDNAKNTVYLKLNILKPEDTAVYYCAAHRYINYEYWGQGTQLTVSS	high polyreactivity
QVQLVESCGCLVQAVGSLRLSCAASGRIFGWYAMGWDRQAPVKERELVAAISSARRTYYADSVKGRFTISRDNAKNSVYLQMNSLKPEDTAVSYCAAYYYNDRMYYWGQGNQVTVSS	high polyreactivity
QVQLVESCGGLVQAGCSLRLSCAASGRIFSTNAMGWYRPAPGKERELVAAISSSGSRTYLADSVKGRFTISRDNAKNTVYLQMNSLKPEDTAVYFCNALRNYHHYEYDYWGQGTQVTVSS	high polyreactivity
QVQLVESCGGLVQAGGSHRLSCAASGRIFGVYVMGWYRQAPGKERELVAAISWSCSHTYYADSVKGRYTISRDNAKNTVYLQMNSLKPEDTAVYYCNADSYPDYTGPGLDWYDYWGHGTQVTVSS	low polyreactivity
QVQLVESCGGLVQAGGSLLLSCAASGGTFCDYAMVWYRQAPGKEREFVASITRSVSDTYYADSVKGRFTISRDNAKNTVYLQINSLKPEDTAVYYCKADRWYPWRSIMDYWGQGTQVSVSS	low polyreactivity
QVQLVESCGGLVQAGGSLRLSCAASGFIFSQNAMGWYIQAPGKEREIVAVISARGGRTYYADSVKGRFTISRDNAKNTVYLQMNSLKPEDTAVYDCARRDFWWSRRIFGYWGQGTQVTVSS	high polyreactivity
QVQLVESCGGLVQAGGSLRLSCAASGFTFPYYTMGWYRQAPGKERELVATITGGGSTNYADSVKGRFTISRDNAKNTVYLQKNSLKPEDTAVYYCAAKRWSGYGYYGWYDYWGQGTQVTVSS	high polyreactivity
QVQLVESCGGLVQAGGSLRLSCAASGFTFRNYVMGWYRQAPGKERELVAAISSTGGSTYYADSVKGRFTISRDNAKNTVYLQMNSLKPEDTAVYYCAARYVVQWPRYGFDYWGQGTQVTVSS	high polyreactivity
QVQLVESCGGLVQAGGSLRLSCAASGLIFRPNAMGWYRQAPAKERELVAAISGGGGSTYYADSVKGRFTISRDNAKNTVYLQMKSLKPEDTAVYYCNARKLVNRYPVIGVETYDYWGQGTQVTVSS	low polyreactivity
QVQLVESCGGLVQAGGSLRLSCAASGLTFYRYAMGWYRQAPGKERELVAAISSADRTYYADSVKGRFTISRDNAKNTVYLQMNSLKPEDTAVYYCAARANYFGWTKSYYYWGQGTQVNVSS	high polyreactivity
QVQLVESCGGLVQAGGSLRLSCAASGLTYRYYAMGWYRKAPGKERELVAAITSSGTSTYYADSVKGRFTISRDNAKNTVSLQMNSLKAEDTAVSYCAVRQSQKYGLFYYGGQGTQVTVSS	high polyreactivity
QVQLVESCGGLVQAGGSLRLSCAASGRNIWDYGMVWYRQAPGKERELVAVITWGGGSTYYADSVKGRFTISRDNAMNTVYLQMNSLKPEDSAVYYCAKEYHYYYWGQGTQVTVSS	low polyreactivity
QVQLVESCGGLVQAGGSLRLSCAASGRTFRYYAMGWYRQAPWKERELVAAIRRGGSTTYADSVKGRFTISRDNAKNTVYLQMNSLKPEDTAVYYCAARYPGTRGDGYWGQGTQVTVSS	high polyreactivity
QVQLVESCGGLVQAGGSLRLSCAASGSIFAYYAMGWYRQAPGKERDLVAAISRGGGSTYYADSVTGRFTLSRDNAKNTVYLQMNSLKQEDTAVYYCDAYYAKGRAYDYDYWGQGTQVTVSS	high polyreactivity
